Values quoted from earlier work, collected in patent US11608532B2, “Precision medicine for treating and preventing suicidality” (Indiana University Research and Technology Corporation, priority 2017, dated 2023).
Read-outs that look alike come from different tables or passages of the source.

Test system: individual top biomarkers for suicidality

B1: siltuximab (antibody, chains of the INN, looked up, V domains shown)
VH: EVQLVESGGKLLKPGGSLKLSCAASGFTFSSFAMSWFRQSPEKRLEWVAEISSGGSYTYYPDTVTGRFTISRDNAKNTLYLEMSSLRSEDTAMYYCARGLWGYYALDYWGQGTSVTVSS
VL: QIVLIQSPAIMSASPGEKVTMTCSASSSVSYMYWYQQKPGSSPRLLIYDTSNLASGVPVRFSGSGSGTSYSLTISRMEAEDAATYYCQQWSGYPYTFGGGTKLEIK
IL6 modulated by drug in opposite direction to suicide (B. Top Biomarkers in Males, direction of change in suicidality I, AP/2): siltuximab

B2: Siltuximab (antibody, chains of the INN, looked up, V domains shown)
VH: B1 VH
VL: B1 VL
Step 6 Drugs that Modulate the Biomarker in Opposite Direction to Suicide (biomarker IL6 (interleukin 6)): Siltuximab

B3: certolizumab (antibody, chains of the INN, looked up, V domains shown)
VH: EVQLVESGGGLVQPGGSLRLSCAASGYVFTDYGMNWVRQAPGKGLEWMGWINTYIGEPIYADSVKGRFTFSLDTSKSTAYLQMNSLRAEDTAVYYCARGYRSYAMDYWGQGTLVTVSS
VL: DIQMTQSPSSLSASVGDRVTITCKASQNVGTNVAWYQQKPGKAPKALIYSASFLYSGVPYRFSGSGSGTDFTLTISSLQPEDFATYYCQQYNIYPLTFGQGTKVEIK
TNF modulated by drug in opposite direction to suicide (D. Top Biomarkers in Bipolar Disorder, direction of change in suicidality (I) DE/1, (I) AP/1): certolizumab,

B4: CAT-354 (antibody, chains of the INN, looked up, V domains shown)
VH: QVQLVQSGAEVKKPGASVKVSCKASGYTFTNYGLSWVRQAPGQGLEWMGWISANNGDTNYGQEFQGRVTMTTDTSTSTAYMELRSLRSDDTAVYYCARDSSSSWARWFFDLWGRGTLVTVSS
VL: SYVLTQPPSVSVAPGKTARITCGGNIIGSKLVHWYQQKPGQAPVLVIYDDGDRPSGIPERFSGSNSGNTATLTISRVEAGDEADYYCQVWDTGSDPVVFGGGTKLTVL
Step 6 Drugs that Modulate the Biomarker in Opposite Direction to Suicide (biomarker IL13 (interleukin 13)): CAT-354
